Experiments:
Assay in all cases: BRET (NanoLuc-miniG recruitment to plasma-membrane K-ras-YFP)
[1] = target: NES-NanoLuc-MiniG subtype miniGq; conditions: 500 ng receptor plasmid; parent: est. -0.030; read off a plot
[2] = target: NES-NanoLuc-MiniG subtype miniGs; conditions: 500 ng receptor plasmid; parent: est. 0.092; read off a plot
[3] = target: NES-NanoLuc-MiniG subtype miniG12; conditions: 500 ng receptor plasmid; parent: est. 0.020; read off a plot
[4] = target: NES-NanoLuc-MiniG subtype miniGi; conditions: 500 ng receptor plasmid; parent: est. -0.023; read off a plot

Sequence: G protein-coupled receptor 3 (GPR3), wild type (from UniProt P46089) DRY-mutant
- response [1]: -0.015 AU
- response [2]: 0.011 AU
- response [3]: 0.027 AU
- response [4]: -0.013 AU

Reference: paper PMC8238500
